From patent US20210070885A1 (JIANGSU ALPHAMAB BIOPHARMACEUTICALS, published 2021)
Numbering of substitutions follows the chain as printed. Numbers in names are those of the source.

B1: Tmab-CLC5 (antibody, human IgG1, kappa, V domains shown)
VH: not shown
VL: DIQMTQSPSSLSASVGDRVTITCKASQDVSIGVAWYQQKPGKAPKLLIYSASYRYTGVPSRFSGSGSGTDFTLTISSLQPEDFATYYCQQYYIYPYTFGQGTKVEIKR
B2: Tmab-CLC6 (antibody, human IgG1, kappa, V domains shown)
VH: not shown
VL: B1 VL with Y94T
B3: Pmab-CLC2 (antibody, human IgG1, kappa, V domains shown)
VH: EVQLVESGGGLVQPGGSLRLSCAASGFTFTDYTMDWVRQAPGKGLEWVADVNPNSGGSIYNQRFKGRFTLSVDRSKNTLYLQMNSLRAEDTAVYYCARNLGPSFYFDYWGQGTLVTVSS
VL: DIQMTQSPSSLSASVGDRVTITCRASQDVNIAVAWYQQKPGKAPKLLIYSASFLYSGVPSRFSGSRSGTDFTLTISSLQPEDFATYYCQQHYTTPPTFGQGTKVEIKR
notes: Pertuzumab heavy chain with common light chain CLC2
B4: Pmab-CLC6 (antibody, human IgG1, kappa, V domains shown)
VH: B3 VH
VL: B1 VL with Y94T
notes: Pertuzumab heavy chain with common light chain CLC6 (Y94T)
B5: Pmab-CLC3 (antibody, human IgG1, kappa, V domains shown)
VH: B3 VH
VL: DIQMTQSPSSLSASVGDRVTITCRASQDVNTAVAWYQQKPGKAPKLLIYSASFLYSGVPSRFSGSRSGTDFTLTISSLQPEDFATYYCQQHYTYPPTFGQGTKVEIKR
notes: Pertuzumab heavy chain with common light chain CLC3
B6: Pmab-CLC4 (antibody, human IgG1, kappa, V domains shown)
VH: B3 VH
VL: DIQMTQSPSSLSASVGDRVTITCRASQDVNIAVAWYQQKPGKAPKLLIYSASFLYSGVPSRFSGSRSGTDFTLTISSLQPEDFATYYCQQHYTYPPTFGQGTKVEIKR
notes: Pertuzumab heavy chain with common light chain CLC4

Target: T1, HER2m1-Fc (human, UniProt P04626 23-652)
T1 construct: also called HERm1; Her2 ml
Experiment: indirect ELISA as in Example 2-6, EC50 compared

Binder	fold reduction of affinity against the original Trastuzumab [fold]
B1	~1
B2	~1

Target: T2, HER2m2-Fc (human, UniProt P04626 23-652)
T2 construct: also called HERm2; Herm2
Experiment: indirect ELISA as in Example 2-6, EC50 compared

Binder	binding result
B3	binds
B4	binds
B5	binds
B6	binds
